In the DeepSol protein solubility set:

Test: soluble on expression in E. coli; label from the status in PepcDB or PDB records

Sequence | soluble on expression in E. coli
MTKRGPDDLQLSLRNGVGGASTTAPGVAAAAYYANVMTADSEPKKAKLDPTLYSSQFYTPAMHHGLMTADASTVAAVTAAANATTAQLLTGNPITQIQGIQLSTLPQCNSTSAVTSIPVSKVVHVRNIPPDLVDVELMQLCIQYGPVSNYMMLKGKSQAFVEYEEEASAAAFVSGMTAVPIQIRGRTLFAQYSTHRELKFDKNKAISDTESVANGSVSNFEVGTQQQPNSVLRTIIENMMFPVSLDVLYQLFTRYGKVLRIITFNKNNTFQALVQMSEANSAQLAKQGLENQNVYNGCCTLRIDYSKLSTLNVKYNNDKSRDYTNPNLPAGEMTLEQTIAMSIPGLQNLIPANPYNFAFGANPATTFLTTQLAASTAAAAAVNDSANAAALAPYLNPLGLTSANLAPSISSMRFPMINLTPVILVSNLHEMKVTTDALFTLFGVYGDVMRVKILYNKKDNALIQYSEPQQAQLALTHLDKVKWHDRLIRVAPSKHTNVQMPKEGQPDAGLTRDYAHSTLHRFKKPGSKNYLNIYPPCATLHLSNIPTSVSEEKLKEMFAEAGFAVKAFKFFPKDHKMALCQLEDIETAIDALIAMHNHKLAENAHLRVSFSKSGI | not soluble
MAYKVYLKDLADVDDGSRCESSSILTQNQPTTIASSGFVMSNPNVKSPSLPSSATNWNSEYSVTEPTMSPADQILKDSVARKKRSMVDLTELNQLYGKGYKPPAPSARTPPTIYENLAINAPSSPSATDASSVPLTFIEKHHEFKKLVPSGTDGRFELFLKVADCFD | not soluble
SENVGKKYFMSSVRRMPLNRAKALCSELQGTVATPRNAEENRAIQNVAKDVAFLGITDQRTENVFEDLTGNRVRYTNWNEGEPNNVGSGENCVVLLTNGKWNDVPCSDSFLVVCEFSD | soluble
MGSDKIHHHHHHMSSADLLAPYRGPLTVEQVATGMNAATANARRLAQDARLLLANKRWPTAASLAALSIEESGKVVILRRFVTANTDDIKRLWKEYRTHTKKNINWILPELVAKGARRLEDFKPIVDSASDHPDILDAMKQIGFYTDCLGKTNWSRPTEVVDETLAKNLVNAAEVLSPDRNISVRELELWAEHMGPVWNKNLDWMKQALVNWYGAMQAEGLMPAGSNKMQAFVKEGLATDQAKQIGREV | not soluble
MDLFPVLKELAQKTPSKILLIVLDGVGGLPLEPGGPTELEAAKTPNLDRLAEESALGLLTPVYPGLAPGSGPGHLALFGYDPFRYVVGRGALSALGLGADFREGDVALRGNFATLDPEGKVVDRRAGRPPTEENQRVVAKLKEAIPRIEDVEVHFYTESEHRFLVVLRGEGLGDAVTDTDPQKTGLPPLKAKALDEASERTARLVNLLSERIREVLKDEPRMNGALFRGASKKPSFPRMQEVYKLTPAAIASYPMYKGLASLVGMEVLPVEGEGDALEGKLKALKENWGRYDFFYFHVKKTDAMGEDGNFHGKVEKVELFDALLPEILALGPDVLAITGDHSTPALLKAHSWHPVPLLLKAPYLRADEARRFTEREAQRGSLGHLRGMELMPLLLAHAGKLLKYGALEHHHHHH | not soluble
MFGVTLWEMFSGGEEPWAGVPPYLILQRLEDRARLPRPPLCSRALYSLALRCWAPHPADRPSFSHLEGLLQEAGPSEACCVRDVTEPGALRMETGDPITVIEGSPDSTIWKGQNGRTFKVGSFPASAVTLADAGGLPATRPVHRGTPARGDQHPGSIDGDRKKANLWDAPPARGQRRNMPLERMKGISRSLESVLSLGPRPTGGGSSPPEIRQARAVPQGPPGLPPRPPLSSSSPQPSQPSRERLPWPKRKPPHNHPMGMPGARKAAALSGGLLSDPELQRKIMEVELSVHGVTHQECQTALGATGGDVVSAIRNLKVDQLFHLSSRSRADCWRILEHYQWDLSAASRYVLARP | soluble
MAGNANSVDEEVTRILGGIYLGGIRPIIDHRPLGAEFNITHILSVIKFQVIPEYLIRKGYTLKNIPIDDDDVTDVLQYFDETNRFIDQCLFPNEVEYSPRLVDFKKKPQRGAVFAHCQAGLSRSVTFIVAYLMYRYGLSLSMAMHAVKRKKPSVEPNENFMEQLHLFEKMGGDFVDFDNPAYKQWKLKQSIKLDPSGSELVSNSGMFKDSESSQDLDKLTEAEKSKVTAVRCKKCRTKLALSTSFIAHDPPSKESSEGHFIKRAANSHRIIDIQESQANCSHFFIEPLKWMQPELQGKQELEGKFSCPGCSSKVGGYNWKGSRCSCGKWVIPAIHLQTSKVDQFPLQSTALPNMVNFESEKVNR | not soluble
MSAPLIDKYRKMATFDWKKLKAAVEGEEHVRLKSEVVAKMKSEPVFHRDYRVLSREEQREVVHQRWKKIVEWGLFKDPYSDLENFHALTETLEAYDQGTSARLFLHGNVFGAAVKSMGTDRHKDLIQKTENNEIVGAFCLTEVGHGSNTAEIQTTATFDNGELVFNTPSVSAIKCWAGNLAHSATHVVVYAQLHVEGKNEGFHGFVIQVRCPRTFQTLPGITIGDMGSKPGCWQGVENGWMEFKNHRAPLSALLNKGCDITPDGKYVTSFKSASEKQSVSLGTLSVGRLGIIAKGMMACTFASTIAIRYSVARRQFGPVKGAENEIPVLEYPLQQYRLFPYLSAAICIRIFQKKFVGHFTEYMMRVIMGEKSDELSEFSKEVHALSSGAKPVATWLGVESLGEARKACGGHGYLQMSRLNTLRDDNDPSQTFEGENFMILQQTSNILLGKAQSIGSIETPMSTMSFLNQKPSKFSSWSSNPVNDVLSAYRYLTYHLLQTTSAEAYRLKASGKNSFEVRNEIQIHRAVNLSVAYTEHTMIHWVQQFLKEIEDQSVKPVLQKVLNLFSLFLLERHLATLYITGYASGGKFGEDLREKLRLAVAELKPEAIALVDSIAPDDFILHSALGASDGKAYEHIMEEFRKYTNEQPRWVCDLAQFLQKRSQGSKL | not soluble
MCSTEKLSEADANLPYFHGALMNIDADQLLVNEGDFMVTMKKQLDINKLQLFLAVRLKKGIRRYEIKRTSKTAKIGGKTSQNIVKLINMLKADPIEIRGEKVVLKRAIPKGKFQLMHKDVIFQKKIGAGAYGTVYRGKLVKTDEVIAVKKLDPEGADEDGLAEMMKEARVMQLYDHPNIVKFHGFILDDLPYLLVLEYCNGGAVEDRLRDKGEKIKVPTRVKYTYMAACGMDYLHKKNCIHRDIASRNCLIHKGVVKMADFGMCRAQSVYKVDLKKPCNIRWLAPEVWDNGETRFNTDVYAFGIMMWEFFETPFKSPYVEMKAAQVKRKTRAGYRLPPPPSMPSRMVEIMSECWQVDAEKRPTAEELKEKLEEFKKKTENSITTSAPPTSVEKSKLSVSSEPTTKSVDPNKSRL | not soluble
MAAPILFWHRRDLRLSDNIGLAAARAQSAQLIGLFCLDPQILQSADMAPARVAYLQGCLQELQQRYQQAGSRLLLLQGDPQHLIPQLAQQLQAEAVYWNQDIEPYGRDRDGQVAAALKTAGIRAVQLWDQLLHSPDQILSGSGNPYSVYGPFWKNWQAQPKPTPVATPTELVDLSPEQLTAIAPLLLSELPTLKQLGFDWDGGFPVEPGETAAIARLQEFCDRAIADYDPQRNFPAEAGTSGLSPALKFGAIGIRQAWQAASAAHALSRSDEARNSIRVWQQELAWREFYQHALYHFPSLADGPYRSLWQQFPWENREALFTAWTQAQTGYPIVDAAMRQLTETGWMHNRCRMIVASFLTKDLIIDWRRGEQFFMQHLVDGDLAANNGGWQWSASSGMDPKPLRIFNPASQAKKFDATATYIKRWLPELRHVHPKDLISGEITPIERRGYPAPIVNHNLRQKQFKALYNQLKAAIAEPEAEPDS | soluble
MNKEALVQVAEEVRRATGLPVGWRDVERTLGALRATRDLWEAVRLSRVPLRFLVPIWEGLARRGLLRVEEGLDLLAEVPAPRPGEAACPACEGRGLVGERLPGRAAERFLAWAKERPEAIQDFDQGYVTPESTLARVALAWNWGDLEGKEVLVLGDDDLTGLAAALTGLPKRVVVLDADPRIVRFLERAAKAEGLPLEAHVHDLREPLPEAWVHAFHTFFTDPVEGPLGLQAFVGRGLLALEGEGCAGYVGLTHVEASLAKWADFQRFLLENGAVITELRDGFHVYENWGYIEQMRAWPWLPVKRRPEKPWYTSALIRLELLRRADLENARVEGDLQDEEATTY | soluble
MGSDKIHHHHHHVRVNVKSHGPRATFPAAPCLHRNPKVKLRLFPQEPAGLHLLSQMARQIVLATATLAEILGVPATEHNRLVEDMHDHEAKSAELHFALLTHMRTSFVNPLPREDMYALSRYLNEAMEKLDAAAELVALYKLERLPRRAADQLEIISRQAELTVDAMRQLNNLDDLEDYWIEILRLAKRAERTHRVWVADMIKDMKWAQYARNRDIANQLVEVTKDMRRIATQVGSIIVKES | not soluble
MKGVNMFERFTDRARRVIVLAQEEARGLNHNYIGTEHILLGLIHEGEGVAAKALESMGISLEAVRQEVEEIIGHGSEPPAGHIPFTPRAKKVLELSLREGLQMGHKYIGTEFLLLGLIREGDGVAAQVLVKLGADLPRVRQQVIQLLS | not soluble
SLTTENQNPLVLDKNEEISQQKADDIRLQLRQEPEVKRLAQQIDVKNQMELLEYGKEPAVEISKFSDRILGMMKTTSVTDSGTMLTQLGKIMDRFDKNDFDEPKGLMAKIFKRGGSMIEKIFKKYQTLGGEIEKIHVEISKYKDEMTKTNYTLDEMYENNIKYYMELEKYVVAGQMKLEEMQSILPSYEEKAASGNQLAQMQLDTLRNGIQALEERVYDLDMARMVALQTAPQIRLLQRGNAKLIGKINSAFIITIPIFKNGIIQAVTVKRQKLVADSMSELDRRTNEMLKRNAENISSQSVEIARMAGRPSIDIETIESSWNTIVSGMQETKQIEEENKRLREDGARRIAQLQDNIKKAALQQ | soluble
MSLSRLLPDPDVAGAWMVRVGDADQSWIDPDDPTRLEFDYMQRIADHLDVHRPAGERMRVIHLGGAGMCLARYVAATRPTSPQIVCEPDAELTAEVRLKAPLPVRSGIKVRPVDGRSGVAAMREDFADVVILDAFDGARVPGDLVTVEFFADVSRILHSDGIGVANLADSAPLVWTKRVVRSVKEVFSNVCMAAEPATLKGRRYGNIVLAASNGPLHEEDLTRRCSGAAVPFRFIAGDALAKLLADARPFHDGDTESSEGHHHHHH | not soluble
MGSDKIHHHHHHMSEALELLGQDIVARAPGVLGHSVAFGELTIVARAASVIDTLTFLRDDAACRFHQLIDLTGVDYPERAARFDVVYHLLSLVKNHRIRLKVSTDEDTPVPSVTPVFPVADWFEREAFDMYGIFFDGHPDLRRILTDYGFHGHPLRKDFPMTGYVEVRYDDELKRVVYEPVKITEFRAFDFLSPWEGAKYALPGDEKAQ | not soluble
MGSDKIHHHHHHMAQEALCRKRHEGFNGSMVGVSLADLIQLKGTNRFSGCISVEFGGRCGVIFFQDGEIVHAEKGSCEGEEALQRIMRWPGGRFTAYPHLATDRHSIRKNRQHLLLDAHRAMDERHRHVDPKGERAEQTPLRERIRAIGMVSDAITLDFDGVPTDEKSPSADRLAAGACFLARLADRIGSRLGTGSPTSMVLEGTREHLFIYTGKHHLLAVAAGADHQPPMVEEAIRRAVQTA | not soluble
MSYEMNSLFSSNQQPLGGGPPPQQQSQQQQQPPQSLWSLQQFSQMGAPDNFGNHAVPFMPTLGMLNQYQNPHPLQMVPPQPLVTPSQVLPPSMAEQQRADTIHGFGVLTWLSAKAGLITCKDKMIISFQLKDFCDQMLNDLTSVLRVGFTLSFHAALNETSEYTATIVSPIYGPDADVLFANSQEVDLEAANPTPPNSKDAYSPALEQKAIPALLAIFQRHGLQQIQLSRSFSLHSQMSNCGDDELFRYVGTSSLKRRQFVERRTHLFRLQNDDSIILQYPAVYQAVYQLASYLLRRGGATSIQSLFDYYGSPDIMPEVRSHTGEGRQDFLNLLTAHNWVFALFPNRTYVSVRRNLPNYDYVGFIKQHFQEMDITRSQQMAYGQPPRGIQRTMSAQMGSSFATGRPQNLLMQHQHAMTPAATRSGSLWDSQSSLSQSGNSGDQWSPLFSPSTWSNNTNANPRLTSLTPLSSMNETLLSGVNYNSLLAMPPSAKNERSIGVQADDFLDRMSYNPIGRTGCTCQCQCGRGGAAIIGNTRGSSSRASGGSASPPSADGASQIDRFSPSNHAGSIGDRTLTAAALGVGLVDQQPAAPNHDGSANQPQRYYDPFGTADLLNGTRLNSLRIGN | not soluble
